Data on five molecules can be found in US20050037969A1.

Ends that are not written are not given here. * marks the point of attachment. Biotin = O=C1N[C@H]2[C@H](CS[C@H]2CCCCC(=O)*)N1

Assay [1] deals with GST-WWP3 (MAGI-1) fusion protein (PDZ domains 1-2) (Homo sapiens) (UniProt Q96QZ7). In words: G assay format, competition against labeled DNAM-1 peptide.
Assay [2] addresses GST-NeDLG fusion protein (PDZ domains 1-2) (Mus musculus (Mouse)) (UniProt P70175). In words: G assay titration of biotinylated peptide on plate-bound GST-PDZ, apparent affinity from saturation fit.
For assay [3], the target named is GST-DLG1 fusion protein (PDZ domains 1-2) (human) (UniProt Q12959). The description is as above.
In assay [4] the target is GST-TIP-1 PDZ domain fusion protein (Homo sapiens) (UniProt O14907). The assay is described as follows: G assay competition against 20 uM TAX 20-mer.
Assay [5] shares this target. The assay is described as follows: G assay competition against CD95 20-mer.
For assay [6] the target is unchanged. In words: G assay competition against 20 uM CD95 20-mer.
Assay [7] has the same target. In words: competition for TIP1 binding, reference CD95.

B1: peptide corresponding to the C-terminal 8 amino acids of DNAM-1 (peptide)
peptide: SRRPKTRV
B1 showed an inhibitor concentration giving at least 50% inhibition in assay [1] of 20 to 200 µM.

B2: Clasp-2 C-terminal peptide AA2L, biotinylated (peptide)
peptide: Biotin-ISGTPTSTMVHGMTSSSSVV
For B2, the Kd in assay [2] was 7.5 µM; in assay [3], 21 µM.

B3: CD95 (Fas) C-terminal peptide AA13L, biotinylated (peptide)
peptide: Biotin-KDITSDSENSNFRNEIQSLV
Turning to B3, the Kd in assay [2] and in assay [3] was 54 µM in each case.

B4: Fas (CD95) 8-mer competitor peptide RNEIQSLV (unlabeled) (peptide)
peptide: RNEIQSLV
As a reminder, the IC50 is the midpoint of a concentration-inhibition curve. High values mean lower potency, low ones higher potency. In turn, B4 yielded an IC50 in assay [4] of 500 µM.

B5: 8-mer peptide corresponding to the C-terminus of TAX (peptide)
peptide: KHFRETEV
B5: in assay [5], the concentration that effectively blocked binding was found to be 100 µM. This molecule also showed an IC50 in assay [6] of 20 to 100 µM. For the same molecule, the fold better competition for binding to TIP1 than CD95 in assay [7] amounted to 1000 fold.
